Earlier results, collected in PMC6753945.

Target: CD28 (Homo sapiens) (UniProt P10747)

Kd: 200 nM
Substance: CD80 (from UniProt P33681)
